The source of these data is patent US20120251547A1 (Amgen, published 2012).

Assay [1] concerns the target T1, huIL-17RA-FLAG-polyHis (human, UniProt Q96F46 33-320).
T1 construct: also called IL-17RA-FLAG-pHis; wild-type IL-17RA
As to the kind of experiment: binning; IL-17RA held by bead mAb M.
Protocol: The method employed the Bio-Plex Workstation and software (BioRad, Hercules, Calif.), as well as reagents from Luminex® Corp. (Austin, Tex.). The manufacturers' basic protocols were followed except where noted below (see www.bio-rad.com and www.luminexcorp.com for details). […] The mouse-anti-human IgG coating was evaluated and the beads quantified by FACS. Each bead code was separately incubated with 10 ul of anti-IL-17RA antibody for 1 hour at room temperature and then washed. The beads were pooled and then dispensed to a 96-well filter plate (Millipore, Billerica, Mass., product #MSBVN1250). […] The PE-tagged monovalent antibody will detect the presence of the second mAb added to the well, but not the first mAb captured by the monovalent mouse-anti-human IgG antibody. Beads were resuspended in 120u1 PBSAT and at least 100 events/bead code were collected on the Bio-Plex workstation as per the manufacturer's recommended protocol.

Assay [2] has as its target T1, huIL-17RA-FLAG-polyHis. In words: binning; IL-17RA held by bead mAb P.
Protocol: (§1) The method employed the Bio-Plex Workstation and software (BioRad, Hercules, Calif.), as well as reagents from Luminex® Corp. (Austin, Tex.). […] The mouse-anti-human IgG coating was evaluated and the beads quantified by FACS. Each bead code was separately incubated with 10 ul of anti-IL-17RA antibody for 1 hour at room temperature and then washed. The beads were pooled and then dispensed to a 96-well filter plate (Millipore, Billerica, Mass., product #MSBVN1250). […] The PE-tagged monovalent antibody will detect the presence of the second mAb added to the well, but not the first mAb captured by the monovalent mouse-anti-human IgG antibody. Beads were resuspended in 120u1 PBSAT and at least 100 events/bead code were collected on the Bio-Plex workstation as per the manufacturer's recommended protocol.
In assay [3] the target is T1, huIL-17RA-FLAG-polyHis. As to the kind of experiment: binning; IL-17RA held by bead mAb K.
Assay [4] addresses T1, huIL-17RA-FLAG-polyHis. In words: binning; IL-17RA held by bead mAb O.
Protocol: as §1
Assay [5] deals with T2, chimera K.
T2 construct: human IL-17RA extracellular domain with mouse Domains A and F; also called Construct K
In words: Bio-Plex titration on His-captured chimera.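 Also: binding of anti-IL-17RA antibodies (4-fold titration across about 5 logs, 1 h) to His-captured IL-17RA chimeras on multiplexed beads, MFI read as percent of maximal wild-type human IL-17RA signal.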
Protocol: (§2) Twelve bead codes of pentaHis-coated beads (Qiagen, Valencia, Calif.; see wwwl.qiagen.com) were used to capture histidine-tagged protein. The 12 bead codes allowed the multiplexing of 11 chimeric and the wild type human IL-17RA.
(§3) The beads were washed as per the manufacturer's protocol and the 12 bead set was pooled and aliquoted into 2 or 3 columns of a 96-well filter plate (Millipore, Billerica, Mass., product #MSBVN1250) for duplicate or triplicate assay points, respectively. 100 ul anti-IL-17RA antibodies in 4-fold dilutions were added to the wells, incubated for 1 hour at room temperature, and washed. […] Beads were resuspended in 1% BSA, shaken for 3 minutes, and read on the Bio-Plex workstation. Antibody binding to IL-17RA chimeric protein was compared to antibody binding to the human IL-17RA wild-type from the same pool. A titration of antibody over approximately a 5 log scale was performed. Median Fluorescence Intensity (MFI) of chimeric proteins was graphed as a percent of maximum wild-type human IL-17RA signal.

Assay [6] has as its target T3, chimera M.
T3 construct: human IL-17RA extracellular domain with mouse Domains C and F; also called Construct M
In words: Bio-Plex titration on His-captured chimera.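 Also: binding of anti-IL-17RA antibodies (4-fold titration across about 5 logs, 1 h) to His-captured IL-17RA chimeras on multiplexed beads, MFI read as percent of maximal wild-type human IL-17RA signal.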
Protocol: as §2, §3

Assay [7] deals with T4, chimera F.
T4 construct: human IL-17RA extracellular domain with mouse Domain F; column head 229-319; also called Construct F
In words: Bio-Plex titration on His-captured chimera.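 Also: binding of anti-IL-17RA antibodies (4-fold titration across about 5 logs, 1 h) to His-captured IL-17RA chimeras on multiplexed beads, MFI read as percent of maximal wild-type human IL-17RA signal.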
Protocol: as §2, §3

A further assay deals with D152R IL-17RA mutant (human, UniProt Q96F46 33-320). As to the kind of experiment: Bio-Plex titration on His-captured D152R mutant.
Assay [8] addresses T1, huIL-17RA-FLAG-polyHis. In words: Bio-Plex, His-tagged wild-type huIL-17RA on pentaHis beads, antibody titration, PE anti-human IgG Fc.
Protocol: as §2, §3
In assay [9] the target is T5, cynomolgus IL-17RA, on cells (cynomolgus).
T5 construct: whole, on cells; also called CHO-cynoIL-17RA; cyno IL-17RA+ CHO cells
As to the kind of experiment: FACS competition: non-clonal supernatant inhibiting biotin-huIL-17A (competitor) binding to cyno IL-17RA+ CHO cells.
Protocol: The anti-IL-17RA antibodies were characterized. Non-clonal hybridoma supernatants were prepared in volumes of 1-2 mls (the Ig concentrations were not determined for these supernatants).

In assay [10] the target is human IL-17RA, full-length, on cells (human, UniProt Q96F46 33-866). As to the kind of experiment: cell-based or functional assay.
The next assay deals with T6, chimera J.
T6 construct: human IL-17RA extracellular domain with mouse Domains D and E; column head D+E; also called Construct J
As to the kind of experiment: Bio-Plex titration on His-captured chimera.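 Also: binding of anti-IL-17RA antibodies (4-fold titration across about 5 logs, 1 h) to His-captured IL-17RA chimeras on multiplexed beads, MFI read as percent of maximal wild-type human IL-17RA signal.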

The next assay concerns the target T7, chimera D.
T7 construct: human IL-17RA extracellular domain with mouse Domain D; column head 176-197; also called Construct D
T7 IL-17RA extracellular domain with FLAG-polyHis tag: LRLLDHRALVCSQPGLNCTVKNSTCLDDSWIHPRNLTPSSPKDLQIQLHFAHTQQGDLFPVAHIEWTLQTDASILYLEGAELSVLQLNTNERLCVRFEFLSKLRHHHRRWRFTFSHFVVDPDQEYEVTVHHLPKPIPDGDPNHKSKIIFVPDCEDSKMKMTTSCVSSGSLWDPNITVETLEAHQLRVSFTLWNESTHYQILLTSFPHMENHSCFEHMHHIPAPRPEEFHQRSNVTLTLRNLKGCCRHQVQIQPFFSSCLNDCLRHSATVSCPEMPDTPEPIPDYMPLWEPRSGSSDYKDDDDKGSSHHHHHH
In words: Bio-Plex titration on His-captured chimera.

The target of the next assay is T8, muIL-17RA-FLAG-polyHis (mouse, UniProt Q60943 32-322).
T8 construct: also called mouse IL-17RA; mu WT
As to the kind of experiment: Bio-Plex, His-tagged muIL-17RA on pentaHis beads, antibody titration.

Assay [11] addresses T4, chimera F. In words: Bio-Plex titration on His-captured chimera; cell not bold in the scan.
Protocol: as §2, §3
Assay [12] has as its target T2, chimera K. As to the kind of experiment: Bio-Plex titration on His-captured chimera; cell bold in heavy box (shaded: lost binding).
Protocol: as §2, §3
The target of another assay is T9, chimera L.
T9 construct: human IL-17RA extracellular domain with mouse Domains B and F; B+F; also called Construct L
The description is as above.

Assay [13] has as its target T3, chimera M. Described as above.
Protocol: as §2, §3
For assay [14], the target named is T1, huIL-17RA-FLAG-polyHis. As to the kind of experiment: SPR Biacore 3000, mAb captured on anti-human IgG CM4 chip, soluble huIL-17RA-FLAG-polyHis as analyte, 25 C, 1:1 model.
Protocol: In vitro binding of IL-17RA mAbs was assayed. The binding affinities of IL-17RA antibodies were measured by surface plasmon resonance using a Biacore 3000® instrument by standard methods known in the art. Antibody candidates were captured on CM4 chips derivatized with goat anti-human IgG (H+ L) antibody (Jackson Immuno Research, Bar Harbor, Me.). A CM4 chip coated with goat anti-human IgG (H+ L) antibody but without captured antibody was used as a reference.
Experiments were conducted at 25° C. using a 50 uL/min flow rate. Data was fit to a 1:1 Model+Local Rmax using BIAeval Software® (v4.1).

T8 sequence (Q60943 32-322 limits assumed): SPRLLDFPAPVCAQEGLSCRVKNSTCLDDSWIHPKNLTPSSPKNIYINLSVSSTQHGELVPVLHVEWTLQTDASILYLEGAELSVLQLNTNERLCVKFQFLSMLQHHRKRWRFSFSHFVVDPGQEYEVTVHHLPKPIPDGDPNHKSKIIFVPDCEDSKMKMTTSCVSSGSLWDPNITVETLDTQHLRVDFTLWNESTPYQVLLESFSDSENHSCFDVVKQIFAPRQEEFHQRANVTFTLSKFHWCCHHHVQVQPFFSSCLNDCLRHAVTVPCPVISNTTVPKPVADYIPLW
Protocol for D152R IL-17RA mutant: Twelve bead codes of pentaHis-coated beads (Qiagen, Valencia, Calif.; see wwwl.qiagen.com) were used to capture histidine-tagged protein.
To prepare the beads, 100 ul of wild-type IL-17RA and IL-17RA arginine mutant supernatants from transient expression culture were bound to penta-His-coated beads overnight at 4° C. or 2 hours at room temperature with vigorous shaking. The beads were washed as per the manufacturer's protocol and the 12 bead set was pooled and aliquoted into 2 or 3 columns of a 96-well filter plate (Millipore, Bellerica, Mass., product #MSBVN1250) for duplicate or triplicate assay points, respectively. 100 ul anti-IL-17RA antibodies in 4-fold dilutions were added to the wells, incubated for 1 hour at room temperature, and washed. […] Beads were resuspended in 1% BSA, shaken for 3 minutes, and read on the Bio-Plex workstation. Antibody binding to IL-17RA arginine mutant protein was compared to antibody binding to the human IL-17RA wild-type from the same pool. A titration of antibody over approximately a 5 log scale was performed.
Protocol for chimera D: as §2, §3
Protocol for chimera J: as §2, §3
Protocol for chimera L: as §2, §3

B1: AMH21/AML21 (antibody, IgG2, V domains shown)
VH: EVQLVESGGGSVQPGGSLRLSCAASGFTFSSYSMNWVRQAPGKGLEWVSIISSRSSIIHYADSVKGRFTISRDNAKNSLYLQMNSLRDEDTAVYYCARPKVGGGMDVWGQGTTVTVSS
VL: DIQMTQSPSSLSASVGDRVTITCRASQGISNYLAWYQQKPGKFPELLIYAASTLQSGVPSRFSGSGSGTDFTLTISSLQPEDVATYYCQKYNRAPFTFGPGTKVDIK
notes: human mAb from IgG2 XenoMouse mice; also called AM-21; antibody Q
For the molecule B1, the “normalized MFI” value was 44.5 in the assay with huIL-17RA-FLAG-polyHis [1], 2160 in the assay with huIL-17RA-FLAG-polyHis [2], -181 in the assay with huIL-17RA-FLAG-polyHis [3] and 175 in the assay with huIL-17RA-FLAG-polyHis [4]. Also, the 50% effective concentration (EC50) with chimera K [5] was 0.017 nM; in the assay with chimera M [6] it was 0.035 nM; with chimera F [7] it was 0.026 nM; in the assay with huIL-17RA-FLAG-polyHis [8] it was 0.018 nM. Besides, the binding result in the assay with D152R IL-17RA mutant was “no binding (tested: log [Ab] about 0.5 (about 3 nM))”. Moreover, in assay [9], the MFI amounted to 6.

B2: AMH20/AML20 (antibody, IgG2, V domains shown)
VH: EVQLVESGGGLVQPGGSLRLSCAASGFTFSSYSMNWVRQAPGKGLEWVSFISARSSTIYYADSVKGRFTISRDNAKNSLYLQMNSLRDEDTAVYYCARPKVGGGMDVWGQGTTVTVSS
VL: DIQMTQSPSSLSASVGDRVTITCRASQGISNYLAWYQQKPGKFPELLIYAASTLQSGVPSRFSGSGSGTDFTLTISSLQPEDVATYYCQKYNRAPFTFGPGTKVDIK
notes: human mAb from IgG2 XenoMouse mice; also called AM-20; antibody R
B2: the “normalized MFI” value was 24 in the assay with huIL-17RA-FLAG-polyHis [1], 1410 with huIL-17RA-FLAG-polyHis [2], -29 with huIL-17RA-FLAG-polyHis [3] and 140 with huIL-17RA-FLAG-polyHis [4]. For the same molecule, the EC50 with chimera K [5] was determined as 0.022 nM; with chimera M [6] it was 0.04 nM; in the assay with chimera F [7], 0.029 nM; with huIL-17RA-FLAG-polyHis [8] it was 0.022 nM. Besides, in the assay with D152R IL-17RA mutant, the binding result was “no binding (tested: log [Ab] about 0.5 (about 3 nM))”.

B3: AMH18/AML18 (antibody, IgG2, V domains shown)
VH: QVQLVQSGAEVKKPGASVKVSCKASGYSFTDYYMHWVRQAPGQGLEWMGWMHPNSGGTDLAQRFQGRVTMTRDTSISTAYMELSRLRSDDTAVYYCARGGYCSTLSCSFYWYFDLWGRGTLVTVSS
VL: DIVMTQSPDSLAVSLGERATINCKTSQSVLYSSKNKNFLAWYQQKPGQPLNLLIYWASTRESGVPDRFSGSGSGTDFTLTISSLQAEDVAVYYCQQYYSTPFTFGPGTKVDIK
notes: human mAb from IgG2 XenoMouse mice; also called AM-18; antibody G
Take B3: in assay [10], the “IL-17A/HFF IC50” value came out at 0.33 nM. For the same molecule, the “IL-17A/lung fibroblast IC50” value in assay [10] stood at 0.081 nM. Also, the “IL-17F/HFF IC50” value in [10] was 0.073 nM. The “normalized MFI” value in the assay with huIL-17RA-FLAG-polyHis [1] amounted to 2380; in the assay with huIL-17RA-FLAG-polyHis [2] it was 4490; in the assay with huIL-17RA-FLAG-polyHis [3], 8970; with huIL-17RA-FLAG-polyHis [4], 5380. In addition, the EC50 stood at 0.064 nM with chimera J; 0.059 nM with chimera D; 3100 nM with chimera F [11]; 31.3 nM with chimera K [12]; 1.55 nM with chimera M [13]; 0.061 nM in the assay with huIL-17RA-FLAG-polyHis [8]. Further, the “EC50 (read off the curve)” value with D152R IL-17RA mutant is roughly 0.07 nM. The binding result with muIL-17RA-FLAG-polyHis is given as “no binding”. Moreover, the “EC50 cell printed as zero (binding ablated)” value in the assay with chimera L stood at 0 nM. Further, the Ka with huIL-17RA-FLAG-polyHis [14] is 1.01e+08 M⁻¹. In the assay with huIL-17RA-FLAG-polyHis [14], the Kd was found to be 9.88 nM. In the assay with huIL-17RA-FLAG-polyHis [14], this molecule yielded a koff of 0.00101 s⁻¹. This molecule returned a kon in the assay with huIL-17RA-FLAG-polyHis [14] of 102000 M⁻¹ s⁻¹.

By EC50 is commonly meant the concentration needed to bring the measured effect to its halfway point. The low end stands for greater potency, the high end for weaker potency. Usually EC50 (read off the curve) stands for the concentration needed to bring the measured effect to its halfway point. A higher EC50 (read off the curve) goes with weaker potency. In general, Kd refers to the equilibrium constant for the complex coming apart. A higher Kd goes with lower affinity. In general, koff refers to a measure of how fast the partners let go of each other. A word on the kon: it is the rate constant with which the complex forms. A high value points to faster complex formation.
